Results as given in publication PMC5413351 (2017).
Where no end group is shown, it is not given here. fluorescein‑5‑maleimide = fluorescein-5-maleimide

T1: Vps4^101-437 L151D (S. cerevisiae, UniProt P52917 101-437, L151D)
T1 sequence: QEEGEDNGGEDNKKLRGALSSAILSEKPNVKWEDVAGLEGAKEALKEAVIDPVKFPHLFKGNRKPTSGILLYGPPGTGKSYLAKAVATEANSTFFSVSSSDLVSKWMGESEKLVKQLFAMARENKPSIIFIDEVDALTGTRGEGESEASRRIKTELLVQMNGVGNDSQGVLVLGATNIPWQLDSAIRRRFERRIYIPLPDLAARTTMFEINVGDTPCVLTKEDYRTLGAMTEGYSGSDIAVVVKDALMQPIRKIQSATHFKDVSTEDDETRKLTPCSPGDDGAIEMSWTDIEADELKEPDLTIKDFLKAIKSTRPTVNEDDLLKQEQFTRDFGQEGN


Experiments:
Test in all cases: FP
[1] = molecular target: T1, Vps4^101-437 L151D
[2] = molecular target: Vps4^101-437-Hcp1 E322A (S. cerevisiae | Pseudomonas aeruginosa, UniProt P52917 101-437, E322A)
[3] = molecular target: Vps4^101-437-Hcp1 (S. cerevisiae | Pseudomonas aeruginosa, UniProt P52917 101-437)
[4] = molecular target: Vps4^101-437-Hcp1 R325D (S. cerevisiae | Pseudomonas aeruginosa, UniProt P52917 101-437, R325D)
[5] = molecular target: Vps4^101-437-Hcp1 K321A (S. cerevisiae | Pseudomonas aeruginosa, UniProt P52917 101-437, K321A)

| Binder | Kd [1] [nM] | Kd [2] [nM] | Kd [3] [nM] | Kd [4] [nM] | Kd [5] [nM] |
| --- | --- | --- | --- | --- | --- |
| fluorescently labeled Vta1^VSL S278C (domain or fragment) C(fluorescein‑5‑maleimide)YTKDELTKIMDRASKIEQIQKLAKYAISALNYEDLPTAKDELTKALDLLNSI | 4400 |  |  |  |  |
| fluorescently labeled Vta1^VSL S278C (domain or fragment, fluorescein-5-maleimide on the single cysteine (S278C)) MASNAARVVATAKDFDKVGLGIIGYYLQLYAVELILSEEDRSQEMTALATELLDTIEAFKKEIGGESEAEDSDKSLHVMNTLIHDQEKAKIYMLNFTMSLYNEKLKQLKDGPWDVMLKRSLWCCIDLFSCILHLWKENISETSTNSLQKRIKYCKIYLSKLAKGEIGSSDEKTLDYADFADDSEEIKDEDVDHQTSDLENNNNDKVEGLAPKDQTTSYEPVDEVPEFIDDADSVNEEEQTVDKNEDAITKDEQQVVKKEVDLTRPSAPSEPAAAEHKCYTKDELTKIMDRASKIEQIQKLAKYAISALNYEDLPTAKDELTKALDLLNSI |  | 72 | 184 | 564 | 367 |
